Measured values from publication PMC8041799, “Reovirus directly engages integrin to recruit clathrin for entry into host cells” (Nature Communications, 2021).

Tests used:
α2β1 integrin [1] = target: α2β1 integrin (UniProt P17301); assay: single-virus force spectroscopy (FD-curve-based AFM); as a1 (Mn2+), with 1 mM Neu5Ac
[2] = target: β1 integrin on living Lec2 cells (Chinese hamster (endogenous in Lec2)); assay: single-virus force spectroscopy (FD-curve-based AFM); virion on the AFM tip; living Lec2 cells, PeakForce QNM mode, cell culture conditions; 0.5 mM Mn2+
[3] = target: β1 integrin on living Lec2 cells (Chinese hamster (endogenous in Lec2)); assay: single-virus force spectroscopy (FD-curve-based AFM); virion on the AFM tip; living Lec2 cells, PeakForce QNM mode; with Ca2+ (concentration on cells not stated)
α2β1 integrin [4] = target: α2β1 integrin (UniProt P17301); assay: BLI; as a11, virion-storage buffer (15 mM Mg2+) without further cation
α2β1 integrin [5] = target: α2β1 integrin (UniProt P17301); assay: single-virus force spectroscopy (FD-curve-based AFM); as a1 but 15 mM Mg2+ of the virion-storage buffer as only divalent cation
α2β1 integrin [6] = target: α2β1 integrin (UniProt P17301); assay: BLI; α2β1 integrin immobilised on amine-reactive (AR2G) biosensors; T3SA+ virus ~10^13 particles/mL (16 nM in the fit) in virion-storage buffer with 2 mM Mn2+; room temperature; BLItz
[7] = target: β1 integrin on living Lec2 cells (Chinese hamster (endogenous in Lec2)); assay: single-virus force spectroscopy (FD-curve-based AFM); virion on the AFM tip; living Lec2 cells, PeakForce QNM mode; 0.5 mM Mg2+
α2β1 integrin [8] = target: α2β1 integrin (UniProt P17301); assay: single-virus force spectroscopy (FD-curve-based AFM); virus particle on the AFM tip through a PEG27 linker; α2β1 integrin coupled by NHS/EDC to a gold surface; virion-storage buffer (150 mM NaCl, 15 mM MgCl2, 10 mM Tris pH 7.4) with 2 mM Mn2+; ~25 °C; koff from a Bell-Evans fit, kon from BF against contact time, KD = koff/kon
α2β1 integrin [9] = target: α2β1 integrin (UniProt P17301); assay: BLI; as a11, virion-storage buffer with 2 mM Ca2+
α2β1 integrin [10] = target: α2β1 integrin (UniProt P17301); assay: single-virus force spectroscopy (FD-curve-based AFM); as a1 but with 2 mM Ca2+ instead of Mn2+
α2β1 integrin [11] = target: T1, α2β1 integrin (UniProt P17301 30-1132; P05556 21-728); assay: single-virus force spectroscopy (FD-curve-based AFM); virus particle on the AFM tip through a PEG27 linker; α2β1 integrin coupled by NHS/EDC to a gold surface; virion-storage buffer (150 mM NaCl, 15 mM MgCl2, 10 mM Tris pH 7.4) with 2 mM Mn2+; ~25 °C; koff from a Bell-Evans fit, kon from BF against contact time, KD = koff/kon; settings: both partners purified
T1 construct: integrin α2 subunit; integrin β1 subunit; No catalogue number printed; The vendor's recombinant α2β1 is, as far as I recall, the human extracellular domains joined by acidic and basic tails; Coupled through amines (NHS/EDC) to gold surfaces or AR2G biosensors; also called α2β1 integrins; β1 integrins; source: bought: R&D Systems
T1 sequence (P17301 30-1132, chain 1 of 2): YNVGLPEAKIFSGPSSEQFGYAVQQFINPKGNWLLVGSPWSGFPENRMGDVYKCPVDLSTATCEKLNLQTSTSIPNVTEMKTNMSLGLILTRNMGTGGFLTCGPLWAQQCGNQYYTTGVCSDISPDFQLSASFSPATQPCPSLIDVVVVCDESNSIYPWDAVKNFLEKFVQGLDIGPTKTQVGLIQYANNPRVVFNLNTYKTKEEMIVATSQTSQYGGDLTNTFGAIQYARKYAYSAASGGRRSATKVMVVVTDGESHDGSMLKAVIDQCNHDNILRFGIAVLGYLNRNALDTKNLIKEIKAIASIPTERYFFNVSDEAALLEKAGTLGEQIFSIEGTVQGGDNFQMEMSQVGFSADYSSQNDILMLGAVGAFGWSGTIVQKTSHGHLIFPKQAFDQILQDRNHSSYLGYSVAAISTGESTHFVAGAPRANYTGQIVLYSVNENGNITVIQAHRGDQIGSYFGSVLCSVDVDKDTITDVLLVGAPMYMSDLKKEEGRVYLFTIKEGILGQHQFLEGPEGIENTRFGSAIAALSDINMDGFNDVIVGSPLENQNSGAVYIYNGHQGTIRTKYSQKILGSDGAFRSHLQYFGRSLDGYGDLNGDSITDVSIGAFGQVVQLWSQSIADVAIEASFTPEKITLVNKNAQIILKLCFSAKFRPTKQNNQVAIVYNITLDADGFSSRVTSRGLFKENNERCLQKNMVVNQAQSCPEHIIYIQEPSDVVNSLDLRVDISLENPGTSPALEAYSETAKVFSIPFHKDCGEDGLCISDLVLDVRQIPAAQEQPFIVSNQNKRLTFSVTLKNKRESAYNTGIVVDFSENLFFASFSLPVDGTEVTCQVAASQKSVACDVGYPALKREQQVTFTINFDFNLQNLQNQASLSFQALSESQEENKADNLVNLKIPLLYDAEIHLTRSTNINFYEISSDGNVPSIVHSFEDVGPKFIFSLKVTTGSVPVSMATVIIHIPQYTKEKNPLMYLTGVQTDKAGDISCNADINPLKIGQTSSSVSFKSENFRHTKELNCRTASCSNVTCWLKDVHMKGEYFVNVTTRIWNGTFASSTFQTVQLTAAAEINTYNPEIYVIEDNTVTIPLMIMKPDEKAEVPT
T1 sequence (P05556 21-728, chain 2 of 2): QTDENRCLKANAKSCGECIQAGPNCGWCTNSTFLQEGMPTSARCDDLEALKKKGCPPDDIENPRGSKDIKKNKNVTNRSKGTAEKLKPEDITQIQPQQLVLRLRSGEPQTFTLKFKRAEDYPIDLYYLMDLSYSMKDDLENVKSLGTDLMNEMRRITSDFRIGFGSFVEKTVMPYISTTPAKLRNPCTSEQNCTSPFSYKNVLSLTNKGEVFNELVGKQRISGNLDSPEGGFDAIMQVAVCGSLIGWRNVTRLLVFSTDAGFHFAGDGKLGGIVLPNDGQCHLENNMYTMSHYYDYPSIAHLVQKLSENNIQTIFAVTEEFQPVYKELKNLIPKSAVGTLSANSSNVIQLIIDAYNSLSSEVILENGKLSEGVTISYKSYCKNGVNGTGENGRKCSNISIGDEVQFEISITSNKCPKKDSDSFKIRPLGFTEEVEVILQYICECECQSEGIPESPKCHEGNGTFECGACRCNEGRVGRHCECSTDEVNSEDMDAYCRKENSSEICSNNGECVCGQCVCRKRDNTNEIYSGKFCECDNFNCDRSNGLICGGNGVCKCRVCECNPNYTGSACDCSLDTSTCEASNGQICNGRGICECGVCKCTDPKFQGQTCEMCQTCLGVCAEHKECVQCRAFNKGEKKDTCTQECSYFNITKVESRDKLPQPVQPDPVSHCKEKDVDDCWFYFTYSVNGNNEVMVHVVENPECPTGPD

α2β1 integrin (UniProt P17301), sequence (P17301 30-1132, chain 1 of 2): as the sequence (P17301 30-1132, chain 1 of 2) above
α2β1 integrin (UniProt P17301), sequence (P05556 21-728, chain 2 of 2, further chain): as the sequence (P05556 21-728, chain 2 of 2) above

Molecule: reovirus strain T3SA+ virion (from UniProt P03528 1-455; P11077 1-708; P07939 1-365) (complex)
- BF (binding frequency) with Neu5Ac (α2β1 integrin [1]): 6%
- Kd (α2β1 integrin [1]): 116 nM
- koff (α2β1 integrin [1]): 0.57 s⁻¹
- kon (α2β1 integrin [1]): 4.92e+06 M⁻¹ s⁻¹
- BF (binding frequency) [2]: 6%
- BF (binding frequency) [3]: 1%
- Kd (α2β1 integrin [4]): 10 nM
- BF (binding frequency) (α2β1 integrin [5]): 8%
- Kd (α2β1 integrin [5]): 548 nM
- koff (α2β1 integrin [5]): 2.1 s⁻¹
- kon (α2β1 integrin [5]): 3.83e+06 M⁻¹ s⁻¹
- Kd (α2β1 integrin [6]): 2 nM
- BF (binding frequency) [7]: 3%
- BF (binding frequency) (α2β1 integrin [8]): 19%
- Kd (α2β1 integrin [8]): 68 nM
- koff (α2β1 integrin [8]): 0.4 s⁻¹
- kon (α2β1 integrin [8]): 5.83e+06 M⁻¹ s⁻¹
- Kd (α2β1 integrin [9]): 85 nM
- BF (binding frequency) (α2β1 integrin [10]): 1%

Molecule: T3SA+ infectious subvirion particle (ISVP) (from UniProt P03528 1-455; P11077 1-708) (complex)
- BF (binding frequency) (α2β1 integrin [8]): 4%
- Kd (α2β1 integrin [8]): 105 nM
- koff (α2β1 integrin [8]): 0.59 s⁻¹
- kon (α2β1 integrin [8]): 5.62e+06 M⁻¹ s⁻¹

Molecule: reovirus strain T3SA- virion (from UniProt P03528 1-455; P11077 1-708; P07939 1-365) (complex)
- BF (binding frequency) (α2β1 integrin [8]): 7%
- Kd (α2β1 integrin [8]): 103 nM
- koff (α2β1 integrin [8]): 0.58 s⁻¹
- kon (α2β1 integrin [8]): 5.62e+06 M⁻¹ s⁻¹

B1: T3SA+ core (complex)
chain: MANVWGVRLADSLSSPTIETRTRHYTLRDFCSDLDAVAGKEPWRPLRNQRTNDIVAVQLFRPLQGLVLDTQFYGFPGIFSEWEQFIKEKLRVLKYEVLRIYPISNYNHERVNVFVANALVGAFLSNQAFYDLLPLLVINDTMINDLLGTGAALSQFFQSHGEVLEVAAGRKYLQMKNYSNDDDDPPLFAKDLSDYAKAFYSDTFETLDRFFWTHDSSAGVLVHYDKPTNGNHYILGTLTQMVSAPPHIINATDALLLESCLEQFAANVRARPAQPVARLDQCYHLRWGAQYVGEDSLTYRLGVLSLLATNGYQLARPIPKQLTNRWLSSFVSQVMSDGVNETPLWPQERYVQIAYDSPSVVDGATHYGYVRRNQLRLGMRVSALQSLSDTPAPIQWLPQYTIEQAAVDEGDLMVSRLTQLPLRPDYGSIWVGDALSYYVDYNRSHRVVLSSELPQLPDTYFDGDEQYGRSLFSLARKIGDRSLIKDTAVLKHAYQAIDPNTGKEYLRAGQSVAYFGASAGHSGADQPLVIEPWTQGKISGVPPPSSVRQFGYDVAKGAIVDLARPFPSGDYQFVYSDVDQVVDGHDDLSISSGLVESLLDSCMHATSPGGSFVMKINFPTRTVWHYIEQKILPNITSYMLIKPFVTNNVELFFVAFGVHQQSALTWTSGVYFFLVDHFYRYETLSTISRQLPSFGYVDDGSSVTGIEMISLENPGFSNMTQAARVGISGLCANVGNARKLISIHESHGARVLTITSRRSPASARRKARLRYLPLVDPRSLEVQARTILPSNPVLFDNVNGASPHVCLTMMYNFEVSSAVYDGDVVLDLGTGPEAKILELIPPTSPVTCVDIRPTAQPSGCWNVRTTFLELDYLSDGWITGIRGDIVTCMLSLGAAAAGKSMTFDAAFQQLVKVLTKSTANVLLIQVNCPTDVIRTIKGYLEIDQTNKRYRFPKFGRDEPYSDMDSLERICRAAWPNCSITWVPLSYDLRWTKLALLESTTLSSASVRIAELMYKYMPVMRIDIHGLPMEKQGNFIVGQNCSLTIPGFNAQDVFNCYFNSALAFSTEDVNSAMIPQVTAQFDANKGEWSLDMVFSDAGIYTMQALVGSNANPVSLGSFVVDSPDVDITDAWPAQLDFTIAGTDVDITVNPYYRLMAFVRIDGQWQIANPDKFQFFSSSTGTLVMNVKLDIADRYLLYYIRDVQSRDVGFYIQHPLQLLNTITLPTNEDLFLSAPDMREWAVKESGNTICILNSQGFVPPQDWDVLTDTISWSPSLPTYVVPPGDYTLTPL
- Kd (α2β1 integrin [11]): 741 ± 317 nM
- koff (α2β1 integrin [11]): 1.52 ± 0.4 s⁻¹
- kon (α2β1 integrin [11]): 2.05e+06 ± 300000 M⁻¹ s⁻¹
